According to EP3088890B1 (Chugai Seiyaku Kabushiki Kaisha, dated 2020):

T1: GPC3 peptide 541-570 (SEQ ID NO: 28) (human)
T1 construct: Synthetic 30-residue peptide of GPC3
T1 peptide: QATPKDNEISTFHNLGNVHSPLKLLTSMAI

T2: GPC3 peptide 41-70 (SEQ ID NO: 3) (human)
T2 construct: Synthetic 30-residue peptide of GPC3
T2 peptide: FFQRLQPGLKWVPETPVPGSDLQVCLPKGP

T3: GPC3 peptide 221-250 (SEQ ID NO: 12) (human)
T3 construct: Synthetic 30-residue peptide of GPC3
T3 peptide: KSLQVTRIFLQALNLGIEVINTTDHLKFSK

T4: GPC3 peptide 301-330 (SEQ ID NO: 16) (human)
T4 construct: Synthetic 30-residue peptide of GPC3
T4 peptide: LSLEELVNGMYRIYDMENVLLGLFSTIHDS

T5: GPC3 peptide 121-150 (SEQ ID NO: 7) (human)
T5 construct: Synthetic 30-residue peptide of GPC3
T5 peptide: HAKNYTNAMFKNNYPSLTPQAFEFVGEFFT

T6: GPC3 peptide 521-550 (SEQ ID NO: 27) (human)
T6 construct: Synthetic 30-residue peptide of GPC3
T6 peptide: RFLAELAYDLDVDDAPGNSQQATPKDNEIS

T7: GPC3 peptide 441-470 (SEQ ID NO: 23) (human)
T7 construct: Synthetic 30-residue peptide of GPC3
T7 peptide: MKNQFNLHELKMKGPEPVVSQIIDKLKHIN

T8: GPC3 peptide 141-170 (SEQ ID NO: 8) (human)
T8 construct: Synthetic 30-residue peptide of GPC3
T8 peptide: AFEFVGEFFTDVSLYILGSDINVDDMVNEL

T9: GPC3 peptide 321-350 (SEQ ID NO: 17) (human)
T9 construct: Synthetic 30-residue peptide of GPC3
T9 peptide: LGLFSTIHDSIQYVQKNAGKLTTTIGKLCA

T10: GPC3 peptide 161-190 (SEQ ID NO: 9) (human)
T10 construct: Synthetic 30-residue peptide of GPC3
T10 peptide: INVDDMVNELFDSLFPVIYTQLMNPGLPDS

T11: GPC3 peptide 281-310 (SEQ ID NO: 15) (human)
T11 construct: Synthetic 30-residue peptide of GPC3
T11 peptide: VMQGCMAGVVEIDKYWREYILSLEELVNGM

T12: GPC3 peptide 461-490 (SEQ ID NO: 24) (human)
T12 construct: Synthetic 30-residue peptide of GPC3
T12 peptide: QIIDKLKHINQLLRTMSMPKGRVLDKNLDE

T13: GPC3 peptide 381-410 (SEQ ID NO: 20) (human)
T13 construct: Synthetic 30-residue peptide of GPC3
T13 peptide: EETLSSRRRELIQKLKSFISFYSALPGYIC

T14: GPC3 peptide 81-110 (SEQ ID NO: 5) (human)
T14 construct: Synthetic 30-residue peptide of GPC3
T14 peptide: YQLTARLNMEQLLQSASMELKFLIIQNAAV

T15: GPC3 peptide 201-230 (SEQ ID NO: 11) (human)
T15 construct: Synthetic 30-residue peptide of GPC3
T15 peptide: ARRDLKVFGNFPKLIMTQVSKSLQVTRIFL

T16: GPC3 peptide 61-90 (SEQ ID NO: 4) (human)
T16 construct: Synthetic 30-residue peptide of GPC3
T16 peptide: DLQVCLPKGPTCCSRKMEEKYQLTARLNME

T17: GPC3 peptide 401-430 (SEQ ID NO: 21) (human)
T17 construct: Synthetic 30-residue peptide of GPC3
T17 peptide: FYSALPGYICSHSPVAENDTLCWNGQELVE

T18: GPC3 peptide 341-370 (SEQ ID NO: 18) (human)
T18 construct: Synthetic 30-residue peptide of GPC3
T18 peptide: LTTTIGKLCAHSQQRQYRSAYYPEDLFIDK

T19: GPC3 peptide 501-530 (SEQ ID NO: 26) (human)
T19 construct: Synthetic 30-residue peptide of GPC3
T19 peptide: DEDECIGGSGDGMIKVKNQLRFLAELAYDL

T20: GPC3 peptide 241-270 (SEQ ID NO: 13) (human)
T20 construct: Synthetic 30-residue peptide of GPC3
T20 peptide: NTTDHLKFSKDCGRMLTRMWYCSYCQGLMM

T21: GPC3 peptide 261-290 (SEQ ID NO: 14) (human)
T21 construct: Synthetic 30-residue peptide of GPC3
T21 peptide: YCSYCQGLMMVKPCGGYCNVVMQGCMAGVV

T22: GPC3 peptide 481-510 (SEQ ID NO: 25) (human)
T22 construct: Synthetic 30-residue peptide of GPC3
T22 peptide: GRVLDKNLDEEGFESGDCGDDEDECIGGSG

T23: GPC3 peptide 361-390 (SEQ ID NO: 19) (human)
T23 construct: Synthetic 30-residue peptide of GPC3
T23 peptide: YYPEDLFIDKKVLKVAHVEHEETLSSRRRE

T24: GPC3 peptide 21-50 (SEQ ID NO: 2) (human)
T24 construct: Synthetic 30-residue peptide of GPC3
T24 peptide: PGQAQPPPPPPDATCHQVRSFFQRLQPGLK

T25: GPC3 peptide 101-130 (SEQ ID NO: 6) (human)
T25 construct: Synthetic 30-residue peptide of GPC3
T25 peptide: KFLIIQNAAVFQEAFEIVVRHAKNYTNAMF

T26: GPC3 peptide 421-450 (SEQ ID NO: 22) (human)
T26 construct: Synthetic 30-residue peptide of GPC3
T26 peptide: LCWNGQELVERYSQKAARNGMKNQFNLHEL

T27: GPC3 peptide 551-580 (SEQ ID NO: 29) (human)
T27 construct: Synthetic 30-residue peptide of GPC3
T27 peptide: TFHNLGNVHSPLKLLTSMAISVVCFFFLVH

B1: GT607 antibody (antibody, IgG1, V domains shown)
VH: EVQLVESGGDVVRPGGSLKLSCAASGFTFSSYGMSWVRQLPDKRLEWVASVGNGGSYRYYPENLKGRFTISRDNTKNTLYLQISGLKSEDTAIYYCARRGAFPYFDVWGAGTTVTVSS
VL: QIVLTQSPAIMSASPGEKVTLACSASSSVTYMHWYQQKSGTSPKRWIYETSKLASGVPPRFSGSGSGTSYSLTISTMEAEDAATYYCQQWSSNPLTFGAGTKLELKR

biological target: T28, AW2, C-terminally His-tagged recombinant product of positions 1 to 196 of GPC3 (human, UniProt P51654 25-196); experiment: Western blot, pellets of CHO cells expressing the product
T28 construct: Expressed in CHO cells, cell pellets used in Western blot; The range is as printed and starts at position 1; also called AW2 (1-196); not shown: C-terminal His tag
T28 sequence (P51654 25-196): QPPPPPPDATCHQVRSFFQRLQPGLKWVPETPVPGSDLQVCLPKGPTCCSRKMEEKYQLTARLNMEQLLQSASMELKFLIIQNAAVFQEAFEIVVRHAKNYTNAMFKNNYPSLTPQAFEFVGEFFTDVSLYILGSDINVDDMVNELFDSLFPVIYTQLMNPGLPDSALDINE

Question: Does B1 bind?
Answer: no binding

biological target: T29, AW3, C-terminally His-tagged recombinant product of positions 1 to 218 of GPC3 (human, UniProt P51654 25-218); experiment: as above
T29 construct: Expressed in CHO cells, cell pellets used in Western blot; The range is as printed and starts at position 1; not shown: C-terminal His tag
T29 sequence (P51654 25-218): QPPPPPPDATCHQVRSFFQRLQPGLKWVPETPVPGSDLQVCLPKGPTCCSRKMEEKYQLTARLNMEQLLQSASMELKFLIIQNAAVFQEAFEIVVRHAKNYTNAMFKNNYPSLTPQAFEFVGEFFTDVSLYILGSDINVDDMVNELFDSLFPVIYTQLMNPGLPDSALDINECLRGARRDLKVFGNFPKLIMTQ

Question: Does B1 bind?
Answer: no binding

Biological target: T1, GPC3 peptide 541-570 (SEQ ID NO: 28)
Experiment: peptide ELISA, peptide on plate

Question: Does B1 bind?
Answer: no binding (tested: 2 µg/mL)

Biological target: T2, GPC3 peptide 41-70 (SEQ ID NO: 3)
Experiment: peptide ELISA, peptide on plate

Question: Does B1 bind?
Answer: no binding (tested: 2 µg/mL)

Biological target: T3, GPC3 peptide 221-250 (SEQ ID NO: 12)
Experiment: peptide ELISA, peptide on plate

Question: Does B1 bind?
Answer: no binding (tested: 2 µg/mL)

Biological target: T4, GPC3 peptide 301-330 (SEQ ID NO: 16)
Experiment: peptide ELISA, peptide on plate

Question: Does B1 bind?
Answer: no binding (tested: 2 µg/mL)

Biological target: T5, GPC3 peptide 121-150 (SEQ ID NO: 7)
Experiment: peptide ELISA, peptide on plate

Question: Does B1 bind?
Answer: no binding (tested: 2 µg/mL)

Biological target: T6, GPC3 peptide 521-550 (SEQ ID NO: 27)
Experiment: peptide ELISA, peptide on plate

Question: Does B1 bind?
Answer: no binding (tested: 2 µg/mL)

Biological target: T7, GPC3 peptide 441-470 (SEQ ID NO: 23)
Experiment: peptide ELISA, peptide on plate

Question: Does B1 bind?
Answer: no binding (tested: 2 µg/mL)

Biological target: T8, GPC3 peptide 141-170 (SEQ ID NO: 8)
Experiment: peptide ELISA, peptide on plate

Question: Does B1 bind?
Answer: no binding (tested: 2 µg/mL)

Biological target: T9, GPC3 peptide 321-350 (SEQ ID NO: 17)
Experiment: peptide ELISA, peptide on plate

Question: Does B1 bind?
Answer: no binding (tested: 2 µg/mL)

Biological target: T10, GPC3 peptide 161-190 (SEQ ID NO: 9)
Experiment: peptide ELISA, peptide on plate

Question: Does B1 bind?
Answer: no binding (tested: 2 µg/mL)

Biological target: T11, GPC3 peptide 281-310 (SEQ ID NO: 15)
Experiment: peptide ELISA, peptide on plate

Question: Does B1 bind?
Answer: no binding (tested: 2 µg/mL)

Biological target: T12, GPC3 peptide 461-490 (SEQ ID NO: 24)
Experiment: peptide ELISA, peptide on plate

Question: Does B1 bind?
Answer: no binding (tested: 2 µg/mL)

Biological target: T13, GPC3 peptide 381-410 (SEQ ID NO: 20)
Experiment: peptide ELISA, peptide on plate

Question: Does B1 bind?
Answer: no binding (tested: 2 µg/mL)

Biological target: T14, GPC3 peptide 81-110 (SEQ ID NO: 5)
Experiment: peptide ELISA, peptide on plate

Question: Does B1 bind?
Answer: no binding (tested: 2 µg/mL)

Biological target: T15, GPC3 peptide 201-230 (SEQ ID NO: 11)
Experiment: peptide ELISA, peptide on plate

Question: Does B1 bind?
Answer: no binding (tested: 2 µg/mL)

Biological target: T16, GPC3 peptide 61-90 (SEQ ID NO: 4)
Experiment: peptide ELISA, peptide on plate

Question: Does B1 bind?
Answer: no binding (tested: 2 µg/mL)

Biological target: T17, GPC3 peptide 401-430 (SEQ ID NO: 21)
Experiment: peptide ELISA, peptide on plate

Question: Does B1 bind?
Answer: no binding (tested: 2 µg/mL)

Biological target: T18, GPC3 peptide 341-370 (SEQ ID NO: 18)
Experiment: peptide ELISA, peptide on plate

Question: Does B1 bind?
Answer: no binding (tested: 2 µg/mL)

Biological target: T19, GPC3 peptide 501-530 (SEQ ID NO: 26)
Experiment: peptide ELISA, peptide on plate

Question: Does B1 bind?
Answer: no binding (tested: 2 µg/mL)

Biological target: T20, GPC3 peptide 241-270 (SEQ ID NO: 13)
Experiment: peptide ELISA, peptide on plate

Question: Does B1 bind?
Answer: no binding (tested: 2 µg/mL)

Biological target: T21, GPC3 peptide 261-290 (SEQ ID NO: 14)
Experiment: peptide ELISA, peptide on plate

Question: Does B1 bind?
Answer: no binding (tested: 2 µg/mL)

Biological target: T22, GPC3 peptide 481-510 (SEQ ID NO: 25)
Experiment: peptide ELISA, peptide on plate

Question: Does B1 bind?
Answer: no binding (tested: 2 µg/mL)

Biological target: T23, GPC3 peptide 361-390 (SEQ ID NO: 19)
Experiment: peptide ELISA, peptide on plate

Question: Does B1 bind?
Answer: no binding (tested: 2 µg/mL)

Biological target: T24, GPC3 peptide 21-50 (SEQ ID NO: 2)
Experiment: peptide ELISA, peptide on plate

Question: Does B1 bind?
Answer: no binding (tested: 2 µg/mL)

Biological target: T25, GPC3 peptide 101-130 (SEQ ID NO: 6)
Experiment: peptide ELISA, peptide on plate

Question: Does B1 bind?
Answer: no binding (tested: 2 µg/mL)

Biological target: T26, GPC3 peptide 421-450 (SEQ ID NO: 22)
Experiment: peptide ELISA, peptide on plate

Question: Does B1 bind?
Answer: no binding (tested: 2 µg/mL)

Biological target: T27, GPC3 peptide 551-580 (SEQ ID NO: 29)
Experiment: peptide ELISA, peptide on plate

Question: Does B1 bind?
Answer: no binding (tested: 2 µg/mL)
